Earlier results as cited in publication PMC6472649.
Read-outs that look alike come from different tables or passages of the source.

Columns and labels:
[1] = molecular target: SFLLRN ligand (Homo sapiens); assay: FD-AFM
[2] = molecular target: SFLLRN ligand (Homo sapiens); assay: FD-AFM; remark: listed apart in the source

Substance: PAR1 (from UniProt P25116)
- Kd [1]: 0.35 µM
- Kd [2]: 40 µM
